In patent US20240294651A1 (KYMAB, published 2024):
Changes are numbered by the printed parent chain.

Key:
[1] = target: T1, biotinylated CXCR4-virus like particle (Integral Molecular, Lot INT-1793B) (human, UniProt P61073 1-352, VLP biotinylated, sites not stated); assay: SPR (Biacore 8K), biotinylated CXCR4 VLP captured on SA chip, Fab as analyte, 25 C, 1:1 model
T1 construct: also called hCXCR4 VLP; CXCR4 VLP

[2] = target: T2, human CXCR4 (cell-expressed) (human, UniProt P61073 1-352); assay: cell-based or functional assay
[3] = target: T2, human CXCR4 (cell-expressed); assay: cell-based or functional assay; remark: listed apart in the source
[4] = target: T2, human CXCR4 (cell-expressed); assay: cell-based or functional assay; remark: listed apart in the source
[5] = target: T3, cynomolgus CXCR4 (cynomolgus monkey, UniProt Q28474 1-352); assay: cell-based or functional assay
[6] = target: T2, human CXCR4 (cell-expressed); assay: cell-based or functional assay; remark: listed apart in the source
[7] = target: T2, human CXCR4 (cell-expressed); assay: cell-based or functional assay; remark: listed apart in the source
[8] = target: T2, human CXCR4 (cell-expressed); assay: cell-based or functional assay; remark: listed apart in the source
[9] = target: T2, human CXCR4 (cell-expressed); assay: cell-based or functional assay; remark: listed apart in the source
[10] = target: T3, cynomolgus CXCR4; assay: flow cytometry on CHO-S cells expressing cynomolgus CXCR4
Description: Cynomolgus monkey CXCR4 expressing CHO-S cells were plated at 100 uL/well of cells at 1 million of cells/mL (0.1 million of cells/well) into a 96 well V-bottom plate (Greiner). Plates were centrifuged at 300×g for 3 min at 4° C. and supernatant discarded. […] Primary antibody dilutions were added to cells (50 μL/well) and cell pellets resuspended by pipetting. Plates was incubated for 1 h at 4° C. 100 μL/well of PBS, was added and plates centrifuged at 300×g for 3 min at 4° C. and supernatant discarded. This step was repeated twice. […] Cells were resuspended by pipetting. Plates were incubated for 1 h at 4° C. 100 μL/well PBS, was added and plates centrifuged at 300×g for 3 min at 4° C. and supernatant discarded. This step was repeated twice. Finally, cells were resuspended in 100 μL/well of PBS and analysed on CytoFLEX (Beckman Coulter).
Binding of antibodies to cynomolgus CXCR4 expressed on CHO-S cells was analysed by gating the main cell population using forward and side scatter (Flow Jo, Flow Jo LLC) to allow for doublet discrimination. […] EC₅₀ values were calculated by transforming the data and fitting a 4-parameter logistic regression curve to each antibody titration.

[11] = target: T4, terbium-labelled SNAP-CXCR4 on HEK-293 cells (Cisbio C1TT1CXCR4) (human, UniProt P61072 1-352 (Pan troglodytes entry), terbium label on the SNAP tag); assay: TR-FRET (Tag-lite) competition with AlexaFluor 647-CXCL12 on terbium-labelled SNAP-CXCR4 HEK-293 cells
T4 construct: Bought assay-ready cells; also called CXCR4 expressing cells; not shown: SNAP tag

[12] = target: T5, human CXCR7 (human, UniProt P25106 1-362); assay: flow cytometry on CHO-S cells expressing human CXCR7, Alexa Fluor 647 secondary antibody, GeoMean (647 nm)
T5 construct: Expressed on CHO-S cells
Description: CXCR7 expressing CHO-S cells were plated at 100 μL/well of cells at 1 million of cells/mL (0.1 million of cells/well) into a 96 well V-bottom plate (Greiner). Plates were centrifuged at 300×g for 3 min at 4° C. and supernatant discarded. […] Primary antibody dilutions were added to cells (100 μL/well) and cell pellets resuspended by pipetting. Plate was incubated for 1 h at 4° C. 100 μL/well of PBS, was added and plates centrifuged at 300×g for 3 min at 4° C. and supernatant discarded. This step was repeated twice. […] Cells were resuspended by pipetting. Plate was incubated for 1 h at 4° C. 100 μL/well of PBS, was added and plates centrifuged at 300×g for 3 min at 4° C. and supernatant discarded. This step was repeated twice. Finally, cells were resuspended in 100 μL/well of PBS and analysed on CytoFLEX (Beckman Coulter).
Binding of antibodies to CXCR7 expressed on CHO-S cells was analysed by gating the main cell population using forward and side scatter (Flow Jo, Flow Jo LLC) to allow for doublet discrimination.

[13] = target: T6, CXCR4 StaR nanodiscs; assay: SPR (Biacore T200), IgG4-PE antibody captured by anti-IgG on CM5, CXCR4 StaR nanodiscs at 250 nM as analyte, 25 C, 1:1 model; N = 1
T6 construct: Purified receptor in lipid-protein nanodiscs; also called StaR CXCR4; thermostabilised CXCR4
Description: Anti-IgG antibodies were immobilised on chip CM5 (GE Healthcare) by amine coupling. […] A channel with no anti-CXCR4 antibodies captured was used as a reference. […] The blank-subtracted sensorgrams were fitted to the 1:1 interaction model using the Biacore T200 evaluation software. The assay was run at 25° C. using 0.01 M HEPES pH 7.4, 0.15 M NaCl as running buffer.

T1 sequence (P61073 whole entry): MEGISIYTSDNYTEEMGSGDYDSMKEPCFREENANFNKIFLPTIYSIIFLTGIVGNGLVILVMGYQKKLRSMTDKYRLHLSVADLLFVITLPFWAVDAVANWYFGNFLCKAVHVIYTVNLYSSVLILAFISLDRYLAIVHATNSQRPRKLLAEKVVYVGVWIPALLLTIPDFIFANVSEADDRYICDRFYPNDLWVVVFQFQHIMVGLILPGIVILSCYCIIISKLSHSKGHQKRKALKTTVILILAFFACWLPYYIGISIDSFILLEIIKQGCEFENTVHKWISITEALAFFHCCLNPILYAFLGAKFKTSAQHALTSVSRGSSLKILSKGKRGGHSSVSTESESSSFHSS
T4 sequence (P61072 whole entry): as the sequence (P61073 whole entry) above
T2 sequence (P61073 whole entry): as above
T3 sequence (Q28474 whole entry): as the sequence (P61073 whole entry) above, with M24I, N35H, K38R, R146K, N176S counted along it
T5 sequence (P25106 whole entry): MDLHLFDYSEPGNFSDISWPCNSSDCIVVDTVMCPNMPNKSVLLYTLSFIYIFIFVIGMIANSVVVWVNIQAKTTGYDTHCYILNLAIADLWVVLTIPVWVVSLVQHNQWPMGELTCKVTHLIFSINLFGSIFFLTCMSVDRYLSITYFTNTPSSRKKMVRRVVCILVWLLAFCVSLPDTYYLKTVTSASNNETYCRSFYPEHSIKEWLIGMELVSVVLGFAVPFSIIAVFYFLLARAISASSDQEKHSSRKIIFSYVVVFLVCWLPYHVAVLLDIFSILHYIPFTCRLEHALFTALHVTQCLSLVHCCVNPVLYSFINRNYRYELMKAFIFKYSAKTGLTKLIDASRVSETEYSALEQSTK

B1: CL-82558 Fab fragment (Fab, V domains shown)
VH: QVQLQESGPGLVKPSQTLSLTCTVSGGSISSGGYYWSWIRQVPGKGLEWIGYISYSGNTFYSPSLKSRVTISVDTSENKFSLRLTSVTAADTAVYFCARDRRIPMLRGVKGYYYGLDVWGQGTTVTVSS
VL: DIVMTQSPLSLPVIPGEPASISCRSSQSLLHRNGYKYLDWYLQKPGQSPQLLIYLGSNRASGVPARFSGSGSGTDFTLKISRVEAEDVGVYYCMQALQTPWTFGQGTKVEIK
notes: Purified Fab fragment
Q: How did the Kd [1] turn out when B1 was run?
A: 0.67 nM

Q: And the koff [1]?
A: 0.00155 s⁻¹

Q: What about the kon [1] of the same binder?
A: 2.32e+06 M⁻¹ s⁻¹

B2: CL-82458 Fab fragment (Fab, V domains shown)
VH: EVQLVESGGDLVQPGGSLRLSCAASGFTFYSYAMNWVRQAPGKGLKWVSGISGSGDITYYADSVKGRFTISRDNSKNTLYLQMHSLRPEDTAIYYCAKGQLERRYYKYYGMDVWGQGTTVTVSS
VL: DIQMTQSPSSLSASVGDRVTITCRANQGIRNDLGWYQQKPGKAPKRLIYGASSLKSGVPSRFSGSGSGTEFTLTISSLQPEDFATYYCLQQNSYPLTFGGGTKVEIK
notes: Purified Fab fragment
Q: How did the Kd [1] turn out when B2 was run?
A: 1.26 nM

Q: And the koff [1]?
A: 0.00111 s⁻¹

Q: And the kon [1]?
A: 887000 M⁻¹ s⁻¹

B3: CL-82574 Fab fragment (Fab, V domains shown)
VH: QVQLVESGGGVVQPGRSLRLSCAASGFTFYSYGMHWVRQAPGKGLEWVAVIWYGGTNKYYADSVKGRFTISRDNSKNTLYLQMNSLTAEDTAVYYCARGQLERRRGGLNIWGQGTVVTVSS
VL: B2 VL with N26S, I29V, N31D, G50A, K55Q, Q91H, L96F, G100P, E105D
notes: Purified Fab fragment
Q: Which results are given for B3?
A: Kd [1]: 0.52 nM; koff [1]: 0.000481 s⁻¹; kon [1]: 927000 M⁻¹ s⁻¹

B4: CL-82658 Fab fragment (Fab, V domains shown)
VH: QVQLVESGGGVVQPGRSLRLSCAASGFSFSSYGMHWVRQAPGKGLEWVAVISYDGSNKYYADSVKGRFTISRDNSKNTLYLQMNSLRGEDTAVYYCSKGSLTPRRGYYYSYGMDVWGQGTTVTVSS
VL: B2 VL with N26S, G34S, G50A, K55Q, Q91H, S93G, L96F, G100P, E105D
notes: Purified Fab fragment
Q: What does the source list for B4?
A: Kd [1]: 0.69 nM; koff [1]: 0.000423 s⁻¹; kon [1]: 616000 M⁻¹ s⁻¹

B5: CL-83083 (antibody, human IgG4 S228P, lambda)
heavy: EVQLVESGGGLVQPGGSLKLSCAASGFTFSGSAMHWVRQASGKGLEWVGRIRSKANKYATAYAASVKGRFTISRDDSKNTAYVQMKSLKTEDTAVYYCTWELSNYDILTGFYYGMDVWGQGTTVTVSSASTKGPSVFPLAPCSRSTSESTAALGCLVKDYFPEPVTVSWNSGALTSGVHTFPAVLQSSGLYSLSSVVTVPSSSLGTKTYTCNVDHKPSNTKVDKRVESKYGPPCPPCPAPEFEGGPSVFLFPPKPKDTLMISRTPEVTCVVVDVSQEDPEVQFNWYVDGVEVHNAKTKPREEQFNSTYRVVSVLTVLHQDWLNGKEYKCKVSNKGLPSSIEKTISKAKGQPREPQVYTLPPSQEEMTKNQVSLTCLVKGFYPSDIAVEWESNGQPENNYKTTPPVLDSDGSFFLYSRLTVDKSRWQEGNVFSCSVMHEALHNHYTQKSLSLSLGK
light: QAGLTQPPSVSKGLRQTATLTCTGNSNNVGNLGAAWLQQHQGHPPKLLSYRNNNRPSGISERFFASRSGNTASLTITGLQPEDEADYYCSAWDSSLSAWVFGGGTKLTVLGQPKAAPSVTLFPPSSEELQANKATLVCLISDFSPGAVTVAWKADSSPVKAGVETTTPSKQSNNKYAASSYLSLTPEQWKSHKSYSCQVTHEGSTVKKTVAPTECS
notes: Tested in human IgG4-PE format; lambda light chain; also called CL-83083 (IgG4-PE format)
Q: How did the “% Max Inhibition, cAMP HTRF assay, CXCR4 BacMam HEK-293 cells” value (from here on “% Max Inhibition, cAMP HTRF assay”) [2] turn out when B5 was run?
A: 80%

Q: And the “IC50, cAMP HTRF assay, CXCR4 BacMam HEK-293 cells, 5.5 nM CXCL12” value (“IC50, cAMP HTRF assay … 5.5 nM CXCL12” for short) [2]?
A: 36 nM

Q: What about the “% Max Inhibition, beta-arrestin reporter assay, Tango CXCR4-bla U2OS cells” value (“% Max Inhibition … Tango CXCR4-bla U2OS cells” below) [3] of the same binder?
A: 98.9%

Q: And the “IC50, beta-arrestin reporter assay, Tango CXCR4-bla U2OS cells, 30 nM CXCL12” value (“IC50, beta-arrestin reporter assay” for short) [3]?
A: 0.43 nM

Q: What about the “Max Signal (Total Overlap Object Area), internalisation on Ramos cells, live-cell imaging” value [4] of the same binder?
A: 9670 µm^2 per image

Q: What about the “% Maximum Inhibition, cAMP HTRF assay, cyno CXCR4 BacMam HEK-293 cells” value [5] of the same binder?
A: 84%

Q: And the “IC50, cAMP HTRF assay, cyno CXCR4 BacMam HEK-293 cells” value [5]?
A: 11.8 nM

Q: What about the “% effect (remaining % of CXCL12 response), DMR assay, human T-cells” value [6] of the same binder?
A: 5.1%

Q: What about the “IC50, label-free DMR assay, isolated human T-cells, EC80 CXCL12” value [6] of the same binder?
A: 3.58 nM

Q: And the “IC50 n = 1, Jurkat chemotaxis towards 30 nM CXCL12 (IncuCyte)” value [7]?
A: 0.47 nM

Q: What about the “IC50 n = 2, Jurkat chemotaxis towards 30 nM CXCL12 (IncuCyte)” value [7] of the same binder?
A: 0.43 nM

Q: What about the “IC50 n = 3, Jurkat chemotaxis towards 30 nM CXCL12 (IncuCyte)” value [7] of the same binder?
A: 0.34 nM

Q: And the “Mean IC50, Jurkat chemotaxis towards 30 nM CXCL12 (IncuCyte)” value [7]?
A: 0.41 nM

Q: And the “% of max migration at 120 nM Ab, primary naïve T-cell trans-well migration” value [8]?
A: 25.7%

Q: And the “IC50, primary naïve T-cell trans-well migration” value [8]?
A: 1.55 nM

Q: And the “IC50 of antibody in presence of 30 nM CXCL12, human T-cell transwell chemotaxis” value [9]?
A: 0.35 not printed (nM assumed)

Q: And the EC50 [10]?
A: 11 nM

Q: What about the “% Max Inhibition” value [11] of the same binder?
A: 96%

Q: What about the IC50 [11] of the same binder?
A: 1.74 nM

Q: Does B5 bind [12]?
A: no binding (tested: log(M) about -6.9 (about 1.2e-7 M))

Q: What about the Kd [13] of the same binder?
A: 7.1 nM

Q: And the koff [13]?
A: 0.00097 s⁻¹

Q: What about the kon [13] of the same binder?
A: 140000 M⁻¹ s⁻¹

B6: CL-83083-2 (antibody, human IgG4 S228P, lambda)
heavy: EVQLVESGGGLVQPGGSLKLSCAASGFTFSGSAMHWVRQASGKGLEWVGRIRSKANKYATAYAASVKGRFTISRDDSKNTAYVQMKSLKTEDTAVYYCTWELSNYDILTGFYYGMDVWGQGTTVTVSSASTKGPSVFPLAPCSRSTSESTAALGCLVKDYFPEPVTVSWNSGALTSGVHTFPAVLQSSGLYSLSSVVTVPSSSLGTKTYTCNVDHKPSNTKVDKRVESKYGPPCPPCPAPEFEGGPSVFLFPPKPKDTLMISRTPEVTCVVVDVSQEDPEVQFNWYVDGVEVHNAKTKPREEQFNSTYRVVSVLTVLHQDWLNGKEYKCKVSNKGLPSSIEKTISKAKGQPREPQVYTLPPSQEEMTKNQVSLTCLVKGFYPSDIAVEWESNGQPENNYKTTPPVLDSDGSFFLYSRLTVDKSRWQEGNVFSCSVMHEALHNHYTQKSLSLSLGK
light: B5 light with S144Y, K207E
notes: Same variable domains as CL-83083, different lambda constant region; tested in human IgG4-PE format; also called CL-83083-2 (IgG4-PE format)
Q: Which “% Max Inhibition, cAMP HTRF assay” value [2] does the source give for B6 here?
A: 93%

Q: What about the “IC50, cAMP HTRF assay … 5.5 nM CXCL12” value [2] of the same binder?
A: 44 nM

Q: What about the “% Max Inhibition … Tango CXCR4-bla U2OS cells” value [3] of the same binder?
A: 96.9%

Q: And the “IC50, beta-arrestin reporter assay” value [3]?
A: 0.79 nM

Q: And the “% effect (remaining % of CXCL12 response), DMR assay, human T-cells” value [6]?
A: 4.4%

Q: What about the “IC50, label-free DMR assay, isolated human T-cells, EC80 CXCL12” value [6] of the same binder?
A: 3.98 nM

Q: What about the “% Max Inhibition” value [11] of the same binder?
A: 97%

Q: And the IC50 [11]?
A: 3.92 nM

B7: CL-82517 (antibody, human IgG4 S228P, kappa, V domains shown)
VH: EVQLVESGGGLVKPGGSLRLSCAASGFTFSSYSMNWVRQAPGKGLEWVSSISSSRRYIYYADSVKGRFTISRDNAKNSLYLQMNSLRAEDTAVYYCARAYGQVAPYYYYGMDVWGQGTTVTVSS
VL: AIQLTQSPSSLSASVGDRVTITCRASQGISSALAWYQQKPGKAPKLLIYDASSLESGVPSRFSGSGSGTDFTLTISSLQPEDFATYYCQQFNSYPLTFGGGTKVEIKR
notes: Tested in human IgG4-PE format
Q: Which “% Max Inhibition, cAMP HTRF assay” value [2] does the source give for B7 here?
A: 79%

Q: And the “IC50, cAMP HTRF assay … 5.5 nM CXCL12” value [2]?
A: 34 nM

Q: What about the “% Max Inhibition … Tango CXCR4-bla U2OS cells” value [3] of the same binder?
A: 89.6%

Q: What about the “IC50, beta-arrestin reporter assay” value [3] of the same binder?
A: 0.84 nM

Q: What about the “% Max Inhibition” value [11] of the same binder?
A: 96%

Q: What about the IC50 [11] of the same binder?
A: 1.06 nM

B8: CL-82571 (antibody, human IgG4 S228P, kappa, V domains shown)
VH: EVQLVESGGGLVQPGGSLKLSCAASGFTFSGSAMHWVRQASGKGLEWVGRIRSKANKYATAYAASVKGRFTISRDDSKNTAYVQMKSLKTEDTAVYYCTWELSNYDILTGFYYGMDVWGQGTTVTVSS
VL: DIQMTQSPSTLSASVGDRVTITCRASQSISNWLAWYQQKPGKAPKVLIYKASSLESGVPSRFSGSGSGTEFTLTISSLQPDDFATYYCQQYNSFSWTFGQGTKVEIKR
notes: as for B7
Q: B8 was tested. Which “% Max Inhibition, cAMP HTRF assay” value [2] did it give?
A: 88%

Q: And the “IC50, cAMP HTRF assay … 5.5 nM CXCL12” value [2]?
A: 44 nM

Q: And the “% Max Inhibition … Tango CXCR4-bla U2OS cells” value [3]?
A: 85.6%

Q: What about the “IC50, beta-arrestin reporter assay” value [3] of the same binder?
A: 1 nM

Q: And the “% Max Inhibition” value [11]?
A: 96%

Q: What about the IC50 [11] of the same binder?
A: 1.47 nM

B9: CL-83083 Fab fragment (Fab, V domains shown)
VH: B8 VH
VL: QAGLTQPPSVSKGLRQTATLTCTGNSNNVGNLGAAWLQQHQGHPPKLLSYRNNNRPSGISERFFASRSGNTASLTITGLQPEDEADYYCSAWDSSLSAWVFGGGTKLTVL
notes: Purified Fab fragment
Q: Which Kd [1] does the source give for B9 here?
A: 1.86 nM

Q: What about the koff [1] of the same binder?
A: 0.00102 s⁻¹

Q: And the kon [1]?
A: 546000 M⁻¹ s⁻¹

B10: CL-82473 (antibody, human IgG4 S228P, kappa, V domains shown)
VH: QVQLVESGGGVVQPGRSLRLSCAASGFTFSSYGMHWVRQAPGKGLEWVTVILYGGSNKYYADSVKGRFTISRDNSKNTLYLQMNSLRAEDTAVYYCARGMLTYYYSSGFDYWGQGTLVTVSS
VL: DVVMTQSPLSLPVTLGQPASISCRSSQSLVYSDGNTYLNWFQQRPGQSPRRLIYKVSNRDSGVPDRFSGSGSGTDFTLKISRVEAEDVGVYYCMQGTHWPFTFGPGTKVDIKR
notes: as for B7
Q: Which results are given for B10?
A: IC50, cAMP HTRF assay, CXCR4 BacMam HEK-293 cells, 5.5 nM CXCL12 [2]: > 1000 nM; % Max Inhibition, beta-arrestin reporter assay, Tango CXCR4-bla U2OS cells [3]: 85%; IC50, beta-arrestin reporter assay, Tango CXCR4-bla U2OS cells, 30 nM CXCL12 [3]: > 120 nM; % Max Inhibition [11]: 98%; IC50 [11]: 1.2 nM
